The record followed here is US20200190209A1.

The target of the assay is recombinant human CD38 his tagged (extracellular domain) (human) (UniProt P28907). Briefly: ForteBio BLI.

Take “IB4 (reference monoclonal agonistic mouse anti-human CD38 antibody)”: the Kd came out at 9 nM.

A word on the Kd: it is the equilibrium constant for the complex coming apart.
